Reference: publication PMC10397247
Blank lines part the entries; values can stand above or below the binder they belong to.

What was measured:
4H2503-bA = target: T1, 4H2503-bA; assay: two-hybrid library CCNG1;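 further: natural log of median RNA to DNA barcode read ratio; higher means stronger binding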
T1 chain: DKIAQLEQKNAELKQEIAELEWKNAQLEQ

4H967-bA = target: T2, 4H967-bA; assay: two-hybrid library CCNG1;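 further: natural log of median RNA to DNA barcode read ratio; higher means stronger binding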
T2 chain: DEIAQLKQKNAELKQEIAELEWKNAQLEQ

4H2473-bA = target: T3, 4H2473-bA; assay: two-hybrid library CCNG1;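 further: natural log of median RNA to DNA barcode read ratio; higher means stronger binding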
T3 chain: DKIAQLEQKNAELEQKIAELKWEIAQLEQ

4H40-bA = target: T4, 4H40-bA; assay: two-hybrid library CCNG1;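 further: natural log of median RNA to DNA barcode read ratio; higher means stronger binding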
T4 chain: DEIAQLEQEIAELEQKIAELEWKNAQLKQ

4H492-bA = target: T5, 4H492-bA; assay: two-hybrid library CCNG1
T5 chain: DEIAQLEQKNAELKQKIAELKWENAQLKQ

4H2588-bA = target: T6, 4H2588-bA; assay: two-hybrid library CCNG1
T6 chain: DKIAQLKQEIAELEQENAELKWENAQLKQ

4H2438-bA = target: T7, 4H2438-bA; assay: two-hybrid library CCNG1
T7 chain: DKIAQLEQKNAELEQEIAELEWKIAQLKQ

4H348-bA = target: T8, 4H348-bA; assay: two-hybrid library CCNG1
T8 chain: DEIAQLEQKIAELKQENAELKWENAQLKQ

4H3057-bA = target: T9, 4H3057-bA; assay: two-hybrid library CCNG1
T9 chain: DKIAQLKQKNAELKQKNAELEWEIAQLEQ

4H3277-bA = target: T10, 4H3277-bA; assay: two-hybrid library CCNG1
T10 chain: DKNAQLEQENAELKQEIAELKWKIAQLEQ

4H2692-bA = target: T11, 4H2692-bA; assay: two-hybrid library CCNG1
T11 chain: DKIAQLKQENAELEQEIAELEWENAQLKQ

4H319-bA = target: T12, 4H319-bA; assay: two-hybrid library CCNG1
T12 chain: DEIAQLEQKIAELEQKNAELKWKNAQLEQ

4H2717-bA = target: T13, 4H2717-bA; assay: two-hybrid library CCNG1
T13 chain: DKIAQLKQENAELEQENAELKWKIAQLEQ

4H477-bA = target: T14, 4H477-bA; assay: two-hybrid library CCNG1
T14 chain: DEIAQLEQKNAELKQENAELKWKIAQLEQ

4H2915-bA = target: T15, 4H2915-bA; assay: two-hybrid library CCNG1
T15 chain: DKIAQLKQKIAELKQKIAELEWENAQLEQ

4H741-bA = target: T16, 4H741-bA; assay: two-hybrid library CCNG1
T16 chain: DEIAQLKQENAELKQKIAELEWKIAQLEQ

4H2839-bA = target: T17, 4H2839-bA; assay: two-hybrid library CCNG1
T17 chain: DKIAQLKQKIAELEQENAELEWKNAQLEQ

4H675-AA = target: T18, 4H675-AA; assay: two-hybrid library CCmax; conditions: mean of both orientations
T18 chain: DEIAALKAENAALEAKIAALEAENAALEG

4H2948-AA = target: T19, 4H2948-AA; assay: two-hybrid library CCmax; conditions: mean of both orientations
T19 chain: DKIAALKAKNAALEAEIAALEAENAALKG

4H3920-AA = target: T20, 4H3920-AA; assay: two-hybrid library CCmax; conditions: mean of both orientations
T20 chain: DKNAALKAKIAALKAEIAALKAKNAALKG

4H428-AA = target: T21, 4H428-AA; assay: two-hybrid library CCmax; conditions: mean of both orientations
T21 chain: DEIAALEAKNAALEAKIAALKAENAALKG

4H146-AA = target: T22, 4H146-AA; assay: two-hybrid library CCmax
T22 chain: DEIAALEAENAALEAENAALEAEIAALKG

4H2742-AA = target: T23, 4H2742-AA; assay: two-hybrid library CCmax; conditions: mean of both orientations
T23 chain: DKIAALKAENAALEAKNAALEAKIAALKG

4H3102-AA = target: T24, 4H3102-AA; assay: two-hybrid library CCmax; conditions: mean of both orientations
T24 chain: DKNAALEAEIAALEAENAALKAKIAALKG

4H1348-AA = target: T25, 4H1348-AA; assay: two-hybrid library CCmax
T25 chain: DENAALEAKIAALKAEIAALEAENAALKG

4H3417-AA = target: T26, 4H3417-AA; assay: two-hybrid library CCmax; conditions: mean of both orientations
T26 chain: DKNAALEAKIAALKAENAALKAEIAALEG

4H189-AA = target: T27, 4H189-AA; assay: two-hybrid library CCmax
T27 chain: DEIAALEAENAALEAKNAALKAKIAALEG

4H1809-AA = target: T28, 4H1809-AA; assay: two-hybrid library CCmax; conditions: mean of both orientations
T28 chain: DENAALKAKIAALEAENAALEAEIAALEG

4H1391-AA = target: T29, 4H1391-AA; assay: two-hybrid library CCmax; conditions: mean of both orientations
T29 chain: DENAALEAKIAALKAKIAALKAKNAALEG

4H3446-AA = target: T30, 4H3446-AA; assay: two-hybrid library CCmax; conditions: mean of both orientations
T30 chain: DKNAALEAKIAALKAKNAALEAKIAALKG

4H971-AA = target: T31, 4H971-AA; assay: two-hybrid library CCmax
T31 chain: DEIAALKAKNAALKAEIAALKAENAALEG

4H391-AA = target: T32, 4H391-AA; assay: two-hybrid library CCmax; conditions: mean of both orientations
T32 chain: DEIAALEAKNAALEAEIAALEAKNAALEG

4H3121-AA = target: T33, 4H3121-AA; assay: two-hybrid library CCmax; conditions: mean of both orientations
T33 chain: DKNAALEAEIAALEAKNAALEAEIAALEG

4H2713-AA = target: T34, 4H2713-AA; assay: two-hybrid library CCmax; conditions: mean of both orientations
T34 chain: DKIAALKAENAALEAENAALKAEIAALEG

4H3709-AA = target: T35, 4H3709-AA; assay: two-hybrid library CCmax; conditions: mean of both orientations
T35 chain: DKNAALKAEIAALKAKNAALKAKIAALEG

4H2283-AA = target: T36, 4H2283-AA; assay: two-hybrid library CCmax; conditions: mean of both orientations
T36 chain: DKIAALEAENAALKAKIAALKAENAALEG

4H3939-AA = target: T37, 4H3939-AA; assay: two-hybrid library CCmax; conditions: mean of both orientations
T37 chain: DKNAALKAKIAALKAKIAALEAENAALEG

4H497-AA = target: T38, 4H497-AA; assay: two-hybrid library CCmax; conditions: mean of both orientations
T38 chain: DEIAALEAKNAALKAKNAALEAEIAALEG

4H1854-AA = target: T39, 4H1854-AA; assay: two-hybrid library CCmax; conditions: mean of both orientations
T39 chain: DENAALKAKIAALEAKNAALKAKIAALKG

4H656-AA = target: T40, 4H656-AA; assay: two-hybrid library CCmax; conditions: mean of both orientations
T40 chain: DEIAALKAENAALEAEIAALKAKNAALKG

4H3628-AA = target: T41, 4H3628-AA; assay: two-hybrid library CCmax; conditions: mean of both orientations
T41 chain: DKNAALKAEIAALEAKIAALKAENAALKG

4H2991-AA = target: T42, 4H2991-AA; assay: two-hybrid library CCmax; conditions: mean of both orientations
T42 chain: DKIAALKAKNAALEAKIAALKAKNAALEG

4H3066-AA = target: T43, 4H3066-AA; assay: two-hybrid library CCmax; conditions: mean of both orientations
T43 chain: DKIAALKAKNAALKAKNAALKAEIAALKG

4H3029-AA = target: T44, 4H3029-AA; assay: two-hybrid library CCmax; conditions: mean of both orientations
T44 chain: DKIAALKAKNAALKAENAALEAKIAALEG

4H2248-AA = target: T45, 4H2248-AA; assay: two-hybrid library CCmax; conditions: mean of both orientations
T45 chain: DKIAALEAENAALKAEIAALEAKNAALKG

4H478-AA = target: T46, 4H478-AA; assay: two-hybrid library CCmax; conditions: mean of both orientations
T46 chain: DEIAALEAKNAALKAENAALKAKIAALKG

4H3666-AA = target: T47, 4H3666-AA; assay: two-hybrid library CCmax; conditions: mean of both orientations
T47 chain: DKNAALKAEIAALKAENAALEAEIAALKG

4H3591-AA = target: T48, 4H3591-AA; assay: two-hybrid library CCmax; conditions: mean of both orientations
T48 chain: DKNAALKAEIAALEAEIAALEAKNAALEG

interaction score (4H2503-bA): 0.927 | interaction score (4H967-bA): -0.568 | interaction score (4H2473-bA): 1.36 | interaction score (4H40-bA): -0.83 | interaction score (4H492-bA): 1.59 | interaction score (4H2588-bA): -1.29 | interaction score (4H2438-bA): 1.74 | interaction score (4H348-bA): 0.0426 | interaction score (4H3057-bA): 2.39 | interaction score (4H3277-bA): -1.45 | interaction score (4H2692-bA): 0.00488 | interaction score (4H319-bA): -0.948 | interaction score (4H2717-bA): -0.288 | interaction score (4H477-bA): -0.278 | interaction score (4H2915-bA): 1.77 | interaction score (4H741-bA): -0.215 | interaction score (4H2839-bA): 0.364
Binder: DKIAQLEQKNAELEQEIAELEWKIAQLKQ [4H2438-bA]

interaction score (4H675-AA): -1.36 | interaction score (4H2948-AA): -1.13 | interaction score (4H3920-AA): 1.37 | interaction score (4H428-AA): -0.542 | interaction score (4H146-AA): -2.73 | interaction score (4H2742-AA): -1.31 | interaction score (4H3102-AA): -1.34 | interaction score (4H1348-AA): 1.56 | interaction score (4H3417-AA): -1.13 | interaction score (4H189-AA): -1.2 | interaction score (4H1809-AA): -1.86 | interaction score (4H1391-AA): -0.755 | interaction score (4H3446-AA): -1.25 | interaction score (4H971-AA): -1.78 | interaction score (4H391-AA): -1.94 | interaction score (4H3121-AA): -1.43 | interaction score (4H2713-AA): -1.2 | interaction score (4H3709-AA): -1.57 | interaction score (4H2283-AA): -1.14 | interaction score (4H3939-AA): 0.262 | interaction score (4H497-AA): -2.02 | interaction score (4H1854-AA): -1.01 | interaction score (4H656-AA): -0.833 | interaction score (4H3628-AA): 2.05 | interaction score (4H2991-AA): -1.75 | interaction score (4H3066-AA): -2.16 | interaction score (4H3029-AA): -1.57 | interaction score (4H2248-AA): -1.37 | interaction score (4H478-AA): 0.507 | interaction score (4H3666-AA): -1.46 | interaction score (4H3591-AA): 0.665
Binder: DENAALEAKIAALKAEIAALEAENAALKG [4H1348-AA]
